Reference: the supplement of paper PMC9170038

Columns and labels:
MS2 coat protein [1] = test: apparent KD of MS2 coat protein; higher = weaker reporter binding; conditions: Eterna round: R101
Protocol: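 RNA-MaP: designed FMN/MS2 RNA switches (84 nt design region) are transcribed on-chip within common flanks and titrated with SNAP-549-labelled MS2 coat protein (about 1-3000 nM) in 100 mM Tris pH 7.5, 80 mM KCl, 4 mM MgCl2, without or with 200 uM FMN. Median apparent KD per design; activation ratio = KD,OFF / KD,ON.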

MS2 coat protein [2] = test: apparent KD of MS2 coat protein, switch OFF state (with FMN for OFF switches, without FMN for ON switches); designed switch direction (-1 OFF switch, 1 ON switch): 1; higher = weaker reporter binding; conditions: FMN input: 0 or 200 uM; Eterna round: R93 (includes R88 designs)
Outline: (§1)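 Apparent KD was obtained for each design as the median of normalised binding-curve fits over its clusters. RNA switches transcribed on-chip from Illumina sequencing clusters were titrated with SNAP-549-labelled MS2 coat protein (twofold steps, 0.7 or 1.5 nM to 3 µM) in 100 mM Tris-HCl pH 7.5, 80 mM KCl, 4 mM MgCl2, without or with constant ligand.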

MS2 coat protein [3] = test: apparent KD of MS2 coat protein, switch ON state; designed switch direction (-1 OFF switch, 1 ON switch): 1; higher = weaker reporter binding; conditions: FMN input: 0 or 200 uM; Eterna round: R93 (includes R88 designs)
Outline: as §1

## AAAUGAUAUCAGAAGGCGUGGACGAAACGUCCACGAGGAUAUGAGGAUCACCCAUAUCAGGUCAGCCUGCAAAGCAGGCUGACC [#SharedSequence - IExNG1: 7-2] (puzzle (switch architecture): Inverted Exclusion NG 1)
MS2 coat protein [1]; input ligand: FMN 200 uM
  apparent KD of MS2 coat protein: 126 nM
MS2 coat protein [1]; input ligand: none
  apparent KD of MS2 coat protein: 15.6 nM

## UAUUAUAUGGAGAAGGACAUGAGGAUCACCCAUGUCGCCGGGCCCGGGAAACCGGGCCCGGCCAUGUAGGAUAUCCAUAUGGUA [#This is a good prank 6] (puzzle (switch architecture): Inverted Exclusion NG 2)
MS2 coat protein [1]; input ligand: FMN 200 uM
  apparent KD of MS2 coat protein: 5.41 nM
MS2 coat protein [1]; input ligand: none
  apparent KD of MS2 coat protein: 4.78 nM

## AAAGAUUUUUAAGGAUAUGACUCCGAAACGGAGUCAGAAGGUGAGGAUCACCCAUCUAGCUCAGGGUCGAAAGACCCUGAGCAA [#SharedSequence - ExNG1-15] (puzzle (switch architecture): Exclusion NG 1)
MS2 coat protein [1]; input ligand: FMN 200 uM
  apparent KD of MS2 coat protein: 78.3 nM
MS2 coat protein [1]; input ligand: none
  apparent KD of MS2 coat protein: 43.6 nM

## GGUCGUCACAUUAACAUGAGGAUCACCCAUGUCAAAAGACAUGAGGAUAUGCAUCCUAAUUGGAUGCAGAAGGCAUGGACGACC (puzzle (switch architecture): Same State NG 3)
MS2 coat protein [1]; input ligand: FMN 200 uM
  apparent KD of MS2 coat protein: 12.5 nM
MS2 coat protein [1]; input ligand: none
  apparent KD of MS2 coat protein: 216 nM

## CGCAUAGACAUGAGGAUCACCCAUGUAUAAAUAGGAUUAACGUAGGAUAUGCAGAAGAUUAAAGUGCAGAAGGACGGCUUUGCG [JR #DistanceFar #NP SSNG3 Sub070] (puzzle (switch architecture): Same State NG 3)
MS2 coat protein [1]; input ligand: FMN 200 uM
  apparent KD of MS2 coat protein: 7.52 nM
MS2 coat protein [1]; input ligand: none
  apparent KD of MS2 coat protein: 11.5 nM

## UAAUCUCGAGCCGACGGGAGAUUACAUGAGGAUCACCCAUGUGAGGAUAUCCCUGAGAAGACGGCGGAGAAGGCACUGGGUAGG [Diraoran] (puzzle (switch architecture): Exclusion NG 3)
MS2 coat protein [1]; input ligand: FMN 200 uM
  apparent KD of MS2 coat protein: 18.3 nM
MS2 coat protein [1]; input ligand: none
  apparent KD of MS2 coat protein: 9.79 nM

## CUGGUUGUCGUAGGAUAUGUAGGAUAUUCCUACAUGAGGAUCACCCAUGUUCGCAUGGAAGAAGGACAGAAGGACGAUGACCAG [salish99_SSNG2_013 #endbits investigation] (puzzle (switch architecture): Same State NG 2)
MS2 coat protein [1]; input ligand: FMN 200 uM
  apparent KD of MS2 coat protein: 9.22 nM
MS2 coat protein [1]; input ligand: none
  apparent KD of MS2 coat protein: 1320 nM

## CGCUAUUACAUGAGGAUCACCCAUGUAUAUAUGGGAUUUUCGUAGGAUAUGCAGAAGAUUAAAGUGCAGAAGGACGGAAUAGCG [JR #DistanceClose #Static #NP SSNG3 Sub066] (puzzle (switch architecture): Same State NG 3)
MS2 coat protein [1]; input ligand: FMN 200 uM
  apparent KD of MS2 coat protein: 31.9 nM
MS2 coat protein [1]; input ligand: none
  apparent KD of MS2 coat protein: 46.9 nM

## ACACAUGAGGAUCACCCAUGUAGCCGGCGUCUGCGCCAGCCACAGGAUAUACGGCAACACAAGCCGUAGAAGGGUGAUAAACAC [Lalearledi] (puzzle (switch architecture): Same State NG 3)
MS2 coat protein [1]; input ligand: FMN 200 uM
  apparent KD of MS2 coat protein: 33.9 nM
MS2 coat protein [1]; input ligand: none
  apparent KD of MS2 coat protein: 49.1 nM

## AUCAGCUCGUGAGGAUAUACGUCACUGCGUCAGCAGUGUGGUAAGAUCACAUGAGGAUCACCCAUGUAGAAGGCACGAGCUGAU [#FlippingAptamerGcClosingBasepair - Ex NG2 #82] (puzzle (switch architecture): Exclusion NG 2)
MS2 coat protein [1]; input ligand: FMN 200 uM
  apparent KD of MS2 coat protein: 539 nM
MS2 coat protein [1]; input ligand: none
  apparent KD of MS2 coat protein: 23.6 nM

## AAAUAAUCCUCAGGAUAUGACUCCGAAACGGAGUCAGAAGGGAGGAUCACCCUCUUCAGCUCAGCGUCGAAAGACGCUGAGCAA [#SharedSequence ExNG1 - 23] (puzzle (switch architecture): Exclusion NG 1)
MS2 coat protein [1]; input ligand: FMN 200 uM
  apparent KD of MS2 coat protein: 11.9 nM
MS2 coat protein [1]; input ligand: none
  apparent KD of MS2 coat protein: 863 nM

## CACCUAAAUCCUAGAGGAUCACCCUAGGAUAUCACCGUCGAGGUGCCAUAAUGGCACCUCGACGGUGAGAAGGAGGGUGAAAUA [#SharedSequence - SLExNG3: 8] (puzzle (switch architecture): Small Loop Exclusion NG 3)
MS2 coat protein [1]; input ligand: FMN 200 uM
  apparent KD of MS2 coat protein: 6.49 nM
MS2 coat protein [1]; input ligand: none
  apparent KD of MS2 coat protein: 5.08 nM

## AAUAAAAUUCUAGGAUAUGACUCCGAAACGGAGUCAGAAGGAGGAUCACCCUUUCAAAGCUCAGCGUCGAAAGACGCUGAGCAA [#SharedSequence - ExNG1-19] (puzzle (switch architecture): Exclusion NG 1)
MS2 coat protein [1]; input ligand: FMN 200 uM
  apparent KD of MS2 coat protein: 1160 nM
MS2 coat protein [1]; input ligand: none
  apparent KD of MS2 coat protein: 155 nM

## GGGUACAUCGGAGGAUAUCAUGUAAAUACAUGAGGAUCACCCAUGUCGAUGGAGACAUGGGAGAUUGAGAAGGCCGAUGUACCG (puzzle (switch architecture): Same State NG 2)
MS2 coat protein [1]; input ligand: FMN 200 uM
  apparent KD of MS2 coat protein: 31.7 nM
MS2 coat protein [1]; input ligand: none
  apparent KD of MS2 coat protein: 22.5 nM

## UCUUAAUUGUAGAAGGGUGACAUGAGGAUCACCCAUGUGCACGCGCGAUUUACGGCGCGCGUGCCACAGGAUAUACAGUUGGGU [Erinquve] (puzzle (switch architecture): Inverted Same State NG 2)
MS2 coat protein [1]; input ligand: FMN 200 uM
  apparent KD of MS2 coat protein: 12.1 nM
MS2 coat protein [1]; input ligand: none
  apparent KD of MS2 coat protein: 41.1 nM

## GGGUACAUCGGAGGAUAUCAUGUAAAUACAUGAGGAUCACCCAUGUCGAUGGAGACAUCGGAGAUUGAGAAGGCCGAUGUACCG (puzzle (switch architecture): Same State NG 2)
MS2 coat protein [1]; input ligand: FMN 200 uM
  apparent KD of MS2 coat protein: 8.42 nM
MS2 coat protein [1]; input ligand: none
  apparent KD of MS2 coat protein: 159 nM

## CCGACGUUUCAGAAGGCACUCGCAUAAUGCGAGUGAGGAUAUGAGGAUCACCCAUAUCAUCGUCGGAGUCACCGAAACGGUGAC [#SharedSequence - IEx NG 3-2] (puzzle (switch architecture): Inverted Exclusion NG 1)
MS2 coat protein [1]; input ligand: FMN 200 uM
  apparent KD of MS2 coat protein: 12.4 nM
MS2 coat protein [1]; input ligand: none
  apparent KD of MS2 coat protein: 7.89 nM

## GCAGCUAAUGCAGGAUAUCAGCACGUGUAGUGCUGAGAAGGGCACAUGAGGAUCACCCAUGUGAUCAAUUAAUAUUAAUGCUGC [jl-eng1-3.00 #ENG1/11-B3_NECK] (puzzle (switch architecture): Exclusion NG 1)
MS2 coat protein [1]; input ligand: FMN 200 uM
  apparent KD of MS2 coat protein: 41.6 nM
MS2 coat protein [1]; input ligand: none
  apparent KD of MS2 coat protein: 13 nM

## AAUUAAAUCCUAGGAUAUGACUCCGAAACGGAGUCAGAAGGAGGAUCACCCUUUCAAAGCUCAGCGUCGAAAGACGCUGAGCAA [#SharedSequence - ExNG1-17] (puzzle (switch architecture): Exclusion NG 1)
MS2 coat protein [1]; input ligand: FMN 200 uM
  apparent KD of MS2 coat protein: 82.9 nM
MS2 coat protein [1]; input ligand: none
  apparent KD of MS2 coat protein: 649 nM

## AAAUAAAUAAGAGAGGAUAUGUCAGAGAAAACAUGAGGAUCACCCAUGUAAUAAUAAAAAGGGUGACAGAAGGCUCAAAACAAAC [Hyphema modified]
MS2 coat protein [2]
  apparent KD of MS2 coat protein: 58.5 nM
MS2 coat protein [3]
  apparent KD of MS2 coat protein: 32.3 nM

## AAAUAAAUGACUAAGGAUAUAUCGAAGAAGACAUGAGGAUCACCCAUGUAAUAAUAAAAAGGGUGGUAGAAGGUAGUCAACAAAC [Mod 6 of Pariah 4 by Hyphema in Round 1]
MS2 coat protein [2]
  apparent KD of MS2 coat protein: 233 nM
MS2 coat protein [3]
  apparent KD of MS2 coat protein: 156 nM

## UGAAGACAUGAGGAUCACCCAUGUGGGAAUAUGGGAGGAUAUACAAAGACGAGAGUCAGAGUAGAAGGCCUAGGAU [salish99-ss1-96]
MS2 coat protein [2]
  apparent KD of MS2 coat protein: 154 nM
MS2 coat protein [3]
  apparent KD of MS2 coat protein: 36.7 nM

## AAGAAUUAAACGCAGGAUAUGUACCCACGUACAUGAGGAUCACCCAUGUGCCUAUAAGGGUCGAGGCAGAAGGGCGAUAUAGAAA [Reteriusge]
MS2 coat protein [2]
  apparent KD of MS2 coat protein: 81.2 nM
MS2 coat protein [3]
  apparent KD of MS2 coat protein: 15.8 nM

## AGGAAACAUGAGGAUCACCCAUGUAAGAUAAACUUAGGAUAUGCGAAAAGAAACAAAGAAGCAGAAGGAGGGAGAA [75%, Ex5 sub 1, 2]
MS2 coat protein [2]
  apparent KD of MS2 coat protein: 33 nM
MS2 coat protein [3]
  apparent KD of MS2 coat protein: 16.5 nM

## AAAAUAUAAAGAGAGGAUAUCCAAAGAACCACAUGAGGAUCACCCAUGUAAAGAAAGAAUAAGUGGGAGAAGGCUCAAAUAAUAA [Designing denovo 24]
MS2 coat protein [2]
  apparent KD of MS2 coat protein: 99.8 nM
MS2 coat protein [3]
  apparent KD of MS2 coat protein: 27.5 nM
